Measured values taken from publication PMC7273913.

Molecular target: Xenopus laevis FANCD2, 6xHis-tagged (Xenopus laevis)

B1: Human FANCL URD-RING (109–375) hydrophobic patch mutant L248A, F252A, L254A, I265A (domain or fragment)
chain: QFYSSLIEEIGTLGWDKLVYADTCFSTIKLKAEDASGREHLITLKLKAKYPAESPDYFVDFPVPFCASWTPQSSLISIYSQFLAAIESLKAFWDVMDEIDEKTWVLEPEKPPRSATARRIALGNNVSINIEVDPRHPTMAPECAFAGADHVVKPLGAKLSRNIHLWDPENSVLQNLKDVLEIDFPARAILEKSDFTMDCGICYAYQLDGTIPDQVCDNSQCGQPFHQICLYEWLRGLLTSRQSFNIIFGECPYCSKPITLKMSGRKH
  in vitro FANCD2 monoubiquitination (Ube1, Ube2T, FANCL URD-RING, fluorescently labelled ubiquitin, 10 min at 30°C), against WT FANCL: 47 % of WT
